In patent publication US11448657B2, “Methods and kits for assessing Heparanase procoagulant activity, compositions comprising Heparanase, and methods for the treatment of coagulation-related disorders” (RAMBAM MED-TECH, priority 2011, dated 2022):

Assays:
TF = target: T1, TF (Homo sapiens, UniProt P13726); assay: Far-western analysis of heparanase binding to TF and TFPI; conditions: heparanase 1 μg/mL, 2 h, 4° C.; TF 100 ng, TFPI 100 ng
T1 construct: purchased American Diagnostica (Stanford, Conn., USA)
Experimental: FIG. 7B. Far-western analysis. Recombinant TF (100 ng) and TFPI (100 ng) were resolved by SDS-PAGE under reducing conditions using a 10% gradient polyacrylamide gel. After electrophoresis, proteins were transferred to a polyvinylidene fluoride membrane. The membrane was incubated for 2 h with GS3 active heparanase protein (1 μg/mL, 4° C.). Next, the membrane was probed with anti-heparanase antibody followed by horseradish peroxidase-conjugated secondary antibody and chemiluminescence substrate, as described in the Design and Methods section.

prothrombin = target: T2, prothrombin (Homo sapiens, UniProt P00734); assay: Direct activation of prothrombin by heparanase; type: biochemical; conditions: heparanase with prothrombin, 15 min 37° C.
T2 construct: plasma-derived human prothrombin; purchased American Diagnostica (Stanford, Conn., USA); host or cells: purified from human plasma

TF-factor VIIa complex [1] = target: T3, TF-factor VIIa complex (Homo sapiens, UniProt P13726); assay: Thrombin generation: prothrombin added to the factor Xa generation assay (chromogenic substrate for thrombin); type: biochemical; conditions: prothrombin 222 μM added, 15 min 37° C.
T3 construct: purchased American Diagnostica (Stanford, Conn., USA)
Experimental: FIG. 1D. Heparanase increases thrombin levels. Recombinant human TF, recombinant human factor VIIa, plasma-derived human factor X, and plasma-derived human prothrombin were incu-bated (15 min, 37° C.) in a total volume of 125 μL. Chromogenic substrate for the detection of thrombin was then added (1 mM). Human recombinant heparanase (Hepa) was added prior to the addition of the coagulation factors. The mean value±SD of three independent experiments is shown. Note a 3-fold increase in coagulation activity in the presence of heparanase.
In order to verify that factor Xa produced in the presence of heparanase is active, thrombin generation, the next step in the coagulation cascade, was examined. The experiment described above (FIG. 1A) was repeated and plasma-derived human prothrombin (222 μM) was added following the addition of factor X. After 15 minutes at 37° C., chromogenic substrate for thrombin was added (1 mM). In the presence of heparanase, thrombine generation was increased (FIG. 1D).

ICR mice = assay: Intra-peritoneal injection of heparanase to ICR mice, blood drawn after 4 hours (ELISA); type: in vivo; conditions: for IL-6 level: heparanase intra-peritoneal
Experimental: Heparanase or LPS were injected to ICR mice and blood was drawn after 4 hours. Intra-peritoneal injection of heparanase (0.5 μg/mg) compared to PBS injection increased TAT (p<0.05) (18A) and D-Dimer (p<0.05) (18B) levels to similar levels induced by LPS (5 μg/mg).
FIG. 19: IL-6 as a marker of sepsis severity Heparanase, LPS and LPS+heparanase were injected intra-peritoneal to ICR mice. Four hours later the blood was drawn and IL-6 level was measured by ELISA.
Methods: ICR mice, heparanase knock-out mice and heparanase over-expression mice were studied. Sepsis was induced by intra-peritoneal injection of lipopolysaccharides (LPS). Inhibitory peptides to TF/heparanase complex (number 11, 22, 5, 6, 7, 12, and 21 [SEQ IDs: 1-7]) were injected intra-peritoneal half an hour after heparanase or LPS. After 4 hours blood was obtained via sub-mandibular plexus puncture followed by mice sacrificing. Levels of thrombin-antithrombin (TAT), D-Dimer and IL-6 were tested using ELISA. Western blot to plasma factor VII and immunostaining of fibrinogen in lung, kidney and spleen were performed.

factor X = target: T4, factor X (Homo sapiens, UniProt P00742); assay: Direct activation of factor X by heparanase; type: biochemical; conditions: heparanase with factor X, 15 min 37° C.
T4 construct: plasma-derived human factor X; purchased American Diagnostica (Stanford, Conn., USA); host or cells: purified from human plasma

TF-factor VIIa complex [2] = target: T3, TF-factor VIIa complex; assay: Activated factor X generation assay with purified TF, factor VIIa and factor X (chromogenic substrate); type: biochemical
Experimental: FIG. 1A. Recombinant human TF, recombinant human factor VIIa, and plasma-derived human factor X were incubated (15 min, 37° C.) in a total assay volume of 125 μL. Chromogenic substrate for the detection of factor Xa was then added (final concentration 1 mM). Recombinant active heparanase GS3 (Hepa) was added prior to the addition of the coagulation factors. The mean value±SD of three independent experiments in shown. […]
FIG. 1C. […] The mean value of two experiments is shown. Note a 2-fold increase in coagulation activity when the medium contained heparanase or its derivatives.
Following preliminary experiments to quantify the appropriate protein doses, we performed a basic experiment of factor Xa generation in the following manner: the concentrations mentioned are the final concentrations. Lipidated recombinant human TF (0.004 μM, […]), recombinant human factor VIIa (0.04 μM) and plasma-derived human factor X (1.4 μM) were incubated in 50 μL assay buffer (0.06 M Tris, 0.04 M NaCl, 2 mM CaCl 2, 0.04% bovine serum albumin, pH 8.4) to a total volume of 125 μL in a 96-well sterile plate. After 15 min at 37° C., chromogenic substrate for factor Xa was added (1 mM). After 20 min, the reaction was stopped with 50 μL of glacial acetic acid and the level of factor Xa generation was determined using an enzyme-linked immunosorbent assay (ELISA) plate reader (Power Wave XS, BIO-TEK, VT, USA). In order to visualize the increased production of factor Xa by western blotting, the experiment was repeated with 7 μM factor X. After 15 min at 37° C., half of the reaction volume was subjected to blotting using monoclonal anti-human factor X/Xa heavy chain antibody.
The factor Xa generation assay was performed as described in the Design and Methods section with increasing doses of recombinant human heparanase (GS3) added prior to the addition of the coagulation factors. […] It should be noted that factor X is composed of two polypeptide chains, a heavy chain with a molecular weight of 38 kDa and a light chain with a molecular weight of 18 kDa joined by a dipeptide Arg-Arg. The factor VIIa-TF complex activates the conversion of factor X to factor Xa by cleaving the heavy chain to a 33 kDa peptide. […] In order to exclude contamination of the heparanase preparation during the routine procedure of purification described in the Design and Methods section, the inventors tested the effect of overnight serum-free without phenol medium of 293 HEK cells over-expressing heparanase and its derivatives compared to mock. The proteins were further purified from the culture medium and analyzed. Similar quantities of proteins were obtained from the culture media.

[3] = heparanase 0.5 μg/mg intra-peritoneal, 4 hours, compared to PBS

T3 sequence (P13726 33-295): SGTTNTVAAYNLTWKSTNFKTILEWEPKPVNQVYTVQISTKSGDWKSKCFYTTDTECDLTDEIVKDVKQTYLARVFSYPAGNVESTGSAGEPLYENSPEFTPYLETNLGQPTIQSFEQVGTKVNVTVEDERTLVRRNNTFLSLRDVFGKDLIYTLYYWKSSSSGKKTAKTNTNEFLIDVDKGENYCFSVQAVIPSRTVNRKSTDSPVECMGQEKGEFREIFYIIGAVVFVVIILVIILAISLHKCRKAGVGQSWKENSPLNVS
T3 sequence (P08709 61-212 partner limits assumed): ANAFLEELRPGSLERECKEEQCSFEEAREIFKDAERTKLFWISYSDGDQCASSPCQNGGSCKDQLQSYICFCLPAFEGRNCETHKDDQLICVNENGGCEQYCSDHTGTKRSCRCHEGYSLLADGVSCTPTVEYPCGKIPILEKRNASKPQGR
T3 sequence (P08709 213-466 partner limits assumed): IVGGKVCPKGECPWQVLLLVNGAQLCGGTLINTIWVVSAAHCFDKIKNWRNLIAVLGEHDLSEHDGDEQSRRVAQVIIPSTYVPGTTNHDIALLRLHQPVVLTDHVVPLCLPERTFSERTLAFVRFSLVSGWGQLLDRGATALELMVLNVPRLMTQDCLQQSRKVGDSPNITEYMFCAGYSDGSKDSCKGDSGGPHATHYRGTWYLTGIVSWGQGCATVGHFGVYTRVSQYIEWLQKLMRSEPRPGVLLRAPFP
T4 sequence (P00742 183-488 limits assumed): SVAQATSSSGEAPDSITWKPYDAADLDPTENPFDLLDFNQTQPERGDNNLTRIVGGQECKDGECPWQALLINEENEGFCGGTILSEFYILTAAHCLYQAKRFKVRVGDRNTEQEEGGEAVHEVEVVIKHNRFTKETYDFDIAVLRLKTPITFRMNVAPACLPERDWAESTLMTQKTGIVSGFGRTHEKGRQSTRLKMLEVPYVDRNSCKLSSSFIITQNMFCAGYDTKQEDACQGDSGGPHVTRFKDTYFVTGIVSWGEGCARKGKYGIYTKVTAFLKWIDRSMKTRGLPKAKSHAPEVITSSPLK
T4 sequence (P00742 41-179 limits assumed): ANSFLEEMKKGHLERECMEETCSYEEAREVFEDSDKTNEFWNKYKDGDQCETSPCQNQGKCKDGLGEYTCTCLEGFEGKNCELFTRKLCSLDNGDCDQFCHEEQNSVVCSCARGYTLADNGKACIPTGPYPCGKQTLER
T1 sequence (P13726 33-295): as the sequence (P13726 33-295) above

thrombin generation from prothrombin alone (prothrombin): no thrombin was generated | increase in coagulation activity (thrombin level) (TF-factor VIIa complex [1]): 3 fold | factor Xa generation from factor X alone (factor X): no factor Xa was generated | increase in coagulation activity (factor Xa level) (TF-factor VIIa complex [2]; TF, factor VIIa, factor X, 15 min 37° C., heparanase added prior to the coagulation factors): 2 fold | effect on Xa generation at reduced factor VIIa (TF-factor VIIa complex [2]; absence of sufficient factor VIIa): effect of heparanase was abolished | increase in factor Xa levels (TF-factor VIIa complex [2]; overnight serum-free medium of 293 HEK cells over-expressing heparanase species, compared to mock): 2 fold | Xa generation at reduced TF (TF-factor VIIa complex [2]; very low levels of TF (3.13 μg)): increased Xa generation by three folds | factor Xa generation in incomplete reaction mixture (TF-factor VIIa complex [2]; without TF, factor VIIa or factor X, or with inactivated VIIa): Factor Xa was not generated
B1: heparanase: single chain GS3 active heparanase, comprised of the 8 kDa and 50 kDa heparanase heterodimer (8+50), recombinant human (protein, listed as Homo sapiens)
chain 1: DPAQDVVDLDFFTQEPLHLVSPSFLSVTIDANLATDPRFLILLGSPKLRTLARGLSPAYLRFGGTKTDFLIFDPKKE
chain 2: DPGKKFKNSTYSRSSVDVLYTFANCSGLDLIFGLNALLRTADLQWNSSNAQLLLDYCSSKGYNISWELGNEPNSFLKKADIFINGSQLGEDFIQLHKLLRKSTFKNAKLYGPDVGQPRRKTAKMLKSFLKAGGEVIDSVTWHHYYLNGRTATREDFLNPDVLDIFISSVQKVFQVVESTRPGKKVWLGETSSAYGGGAPLLSDTFAAGFMWLDKLGLSARMGIEVVMRQVFFGAGNYHLVDENFDPLPDYWLSLLFKKLVGTKVLMASVQGSKRRKLRVYLHCTNTDNPRYKEGDLTLYAINLHNVTKYLRLPYPFSNKQVDKYLLRPLGPHGLLSKSVQLNGLTLKMVDDQTLPPLMEKPLRPGSSLGLPAFSYSFFVIRNAKVAACI
modifications: single-chain GS3 linker
binding to TF and TFPI on membrane (TF): A clear band was revealed in the TF-heparanase lane but not in the TFPI-heparanase lane | signs of illness (ICR mice; heparanase 0.5 μg/mg intra-peritoneal): mice did not show signs of illness | D-dimer level (ICR mice; [3]): increased | TAT level (ICR mice; [3]): increased | IL-6 level (ICR mice; 4 hours): levels of IL-6 did not rise | IL-6 level (ICR mice; 4 hours, listed as Heparanase): did not increase IL-6 level
